From PMC10851751, “Characterization and insight mechanism of an acid-adapted β-Glucosidase from Lactobacillus paracasei and its application in bioconversion of glycosides” (Frontiers in Bioengineering and Biotechnology, 2024)

How the values were obtained:
purified protein = substrate: O=[N+]([O-])c1ccc(O[C@@H]2O[C@H](CO)[C@@H](O)[C@H](O)[C@H]2O)cc1; experiment: purified protein; conditions: pH 5.5, 30°C, 0.5-15 mM substrate, authors note sigmoidal v0 vs [S]
[1] = substrate: OCc1ccccc1O[C@@H]1O[C@H](CO)[C@@H](O)[C@H](O)[C@H]1O; experiment: HPLC of glucose or aglycone, Michaelis-Menten fit; type: biochemical, Lacticaseibacillus paracasei; conditions: pH 5.5, 30°C, 0.5-15 mM substrate
Description: (§1) HPLC of glucose or aglycone, Michaelis-Menten fit on LpBgla

[2] = substrate: OC[C@H]1O[C@@H](Oc2ccc(O)cc2)[C@H](O)[C@@H](O)[C@@H]1O; experiment: HPLC of glucose or aglycone, Michaelis-Menten fit; type: biochemical, Lacticaseibacillus paracasei; conditions: pH 5.5, 30°C, 0.5-15 mM substrate
Description: as §1

[3] = substrate: OC[C@H]1O[C@@H](Oc2cc(O)cc(/C=C/c3ccc(O)cc3)c2)[C@H](O)[C@@H](O)[C@@H]1O; experiment: HPLC of glucose or aglycone, Michaelis-Menten fit; type: biochemical, Lacticaseibacillus paracasei; conditions: pH 5.5, 30°C, 0.5-15 mM substrate
Description: as §1

[4] = substrate: COC(=O)C1=CO[C@@H](O[C@@H]2O[C@H](CO)[C@@H](O)[C@H](O)[C@H]2O)[C@@H]2C(CO)=CC[C@H]12; experiment: HPLC of glucose or aglycone, Michaelis-Menten fit; type: biochemical, Lacticaseibacillus paracasei; conditions: pH 5.5, 30°C, 0.5-15 mM substrate
Description: as §1

[5] = substrate: O=c1ccc2cc(O[C@@H]3O[C@H](CO)[C@@H](O)[C@H](O)[C@H]3O)c(O)cc2o1; experiment: HPLC of glucose or aglycone, Michaelis-Menten fit; type: biochemical, Lacticaseibacillus paracasei; conditions: pH 5.5, 30°C, 0.5-15 mM substrate
Description: as §1

B1: LpBgla (Lacticaseibacillus paracasei ATCC 334) (protein)
chain: MGVVVSNFHLAKITAEEKVKLTSGKDFWTSEHLADKGIPSFRMSDGPHGLRYQALAADHLGINDSVPSTSFPTASASAAAWDPDLIQAMGKAIGLEAQSLGVDMVLGPGVNMKRNPLCGRNFEYFSEDPFLAGKLGAAWINGIQSQGIAACLKHFAANNQENDRLSSDSLVDPTALHEIYLEAFRIAVTESHPEAVMCSYNKINGTYASDNLYLMTQVLRQQFGFGGAVITDWGALNDKVAALNAGTDLEMPGDDHLFDGEALQAYQQGTLKLASLDRAVTKIAEIARKQRPKFQGSREQLLQANGQLAQKIAESAIVLLKNEAALLPLQATDTVAVIGELAKATRFQGAGSSHINASEIVSVLDGLKQKKVSFDYAAGYRLDDQDDSQATAEALALARNHDKVVFVAGLPDNYESEGFDRQNMALPKVQNDLLQAVTAVNPNVIVLLVAGAPVELPWVDQVKAVVNLSLGGERIGAAAANVLTGAVNPSGKLAESYPLKYQDVPSADVYDKKPRSVPYVESTYIGYRYYDKAKVPVAFPFGFGLSYTSFALKNIQLSSDHVTDDQPLTISLQVTNTGQVDGAEVVQVYVQEQQPRPLRPEKSLKAFKKVFVKAGQTVNVALELKAQAFKEWREQTQTWVLPEAQKAIAVGTSVTNIDAVLPVSFTGETFNNFATIPNWYTTLSGKPSVQDFEQLTDQKVPAPHEFVPGEFTRLNTPREMKKHSLLLRLVAWITVKIRTKDYIDKQGPEAKFQQAIVLDTPLIRLAQQASGALKLSMVDRLVAAANHQYVKMIFR
notes: full-length gene (2,388 bp, 796 amino acids), pET28a, His-tagged, E. coli BL21(DE3), Ni-NTA; monomer
Km (purified protein): 1440 ± 80 µM
kcat (purified protein): 3982 ± 14 s⁻¹
kcat/Km (purified protein): 2.76e+06 M⁻¹ s⁻¹
Km [1]: 2250 ± 10 µM
kcat [1]: 2970 ± 88 s⁻¹
kcat/Km [1]: 1.32e+06 M⁻¹ s⁻¹
Km [2]: 1920 ± 30 µM
kcat [2]: 3570 ± 72 s⁻¹
kcat/Km [2]: 1.86e+06 M⁻¹ s⁻¹
Km [3]: 5710 ± 100 µM
kcat [3]: 1730 ± 45 s⁻¹
kcat/Km [3]: 303000 M⁻¹ s⁻¹
Km [4]: 2870 ± 50 µM
kcat [4]: 2520 ± 23 s⁻¹
kcat/Km [4]: 878000 M⁻¹ s⁻¹
Km [5]: 3610 ± 80 µM
kcat [5]: 2210 ± 38 s⁻¹
kcat/Km [5]: 611000 M⁻¹ s⁻¹
